Assay results from article PMC11794253.

Legend:
[1] = molecular target: His-tagged FcγRIIIa/CD16a extracellular domain (amino acids 17-208), V158 allotype (UniProt P08637); assay: SPR
[2] = molecular target: human neonatal Fc receptor (hFcRn) (human) (UniProt P55899); assay: SPR
Sequence of UniProt P55899 (P55899 24-297, chain 1 of 2): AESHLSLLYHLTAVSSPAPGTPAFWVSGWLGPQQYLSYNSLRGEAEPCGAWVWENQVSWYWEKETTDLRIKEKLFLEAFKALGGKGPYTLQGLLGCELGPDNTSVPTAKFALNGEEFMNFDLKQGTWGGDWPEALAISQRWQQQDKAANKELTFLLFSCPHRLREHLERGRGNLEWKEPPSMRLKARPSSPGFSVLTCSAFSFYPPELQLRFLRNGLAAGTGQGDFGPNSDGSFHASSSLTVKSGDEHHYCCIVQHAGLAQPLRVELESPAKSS
Sequence of UniProt P55899 (P61769 21-119, chain 2 of 2, further chain): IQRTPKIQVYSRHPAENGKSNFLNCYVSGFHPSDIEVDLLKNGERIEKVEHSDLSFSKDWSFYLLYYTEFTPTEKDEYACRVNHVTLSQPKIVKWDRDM

Sequence of UniProt P08637 (P08637 17-208 F176V): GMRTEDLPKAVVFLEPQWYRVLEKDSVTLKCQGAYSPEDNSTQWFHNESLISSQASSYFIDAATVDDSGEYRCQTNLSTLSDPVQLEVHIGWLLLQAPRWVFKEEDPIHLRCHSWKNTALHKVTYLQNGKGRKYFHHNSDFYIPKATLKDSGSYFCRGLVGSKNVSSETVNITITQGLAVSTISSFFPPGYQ

B1: COVA2-15 IgG1, wild type, produced in N. benthamiana ΔXT/FT (antibody, V domains shown)
VH: QVQLLESGGGLVQPGGSLRLSCAASGFTFSSYAMSWVRQAPGKGLEWASAISGSGGSTYYADSVEGRFTISRDNSKNTLYLQMNSLRAEDTAVYYCAKDTGYCGDDCYIKLIRGGPDYWGQGTLVTVSS
VL: DIVMTQSPLSLPVTLGQPASISCRSSQSLVYSDGNTFLNWFQQRPGQSPRRLIYQVSNRDSGVPDRFSGSGSGTDFTLKISRVEAEDVGVYYCMQGTHWPRTFGQGTKLEIK
B1 gave a kon [1] of 306000 M⁻¹ s⁻¹, a Kd ([1]; from kinetic rate constants) of 127 nM and a Kd ([1]; steady-state analysis) of 259 nM. The kon [2] was 389000 M⁻¹ s⁻¹, the Kd ([2]; KD from steady-state analysis) was 344 nM and the Kd ([2]; kinetic 1:1 binding model fit) was 196 nM.
